Measurements: doi:10.1101/776187

Legend:
[1] = target: dynactin (bovine (purified from bovine brain))
[2] = target: human cytoplasmic dynein (recombinant complex of DHC, DIC, DLIC, Tctex, Robl and LC8) (human) (UniProt Q14204)

With “Drosophila BicD-coiled-coil domain 1 (truncated N-terminal fragment of Dm BicD) (domain or fragment)” as the substance, how does the processive run length of DDB^CC1 on microtubules, single molecule TIRF [1] read?
Its processive run length of DDB^CC1 on microtubules, single molecule TIRF is 2.8 µm.

What about the speed of DDB^CC1 on microtubules, single molecule TIRF [1] of the same substance?
Its speed of DDB^CC1 on microtubules, single molecule TIRF is 0.41 µm/s.

And the processive run length of DDB^CC1 on microtubules, single molecule TIRF [2]?
Its processive run length of DDB^CC1 on microtubules, single molecule TIRF is 2.8 µm.

And the speed of DDB^CC1 on microtubules, single molecule TIRF [2]?
Its speed of DDB^CC1 on microtubules, single molecule TIRF is 0.41 µm/s.
